T1: RAPGEF6, Q8TEU7
T1 sequence (Q8TEU7 525-625, limits assumed, looked up): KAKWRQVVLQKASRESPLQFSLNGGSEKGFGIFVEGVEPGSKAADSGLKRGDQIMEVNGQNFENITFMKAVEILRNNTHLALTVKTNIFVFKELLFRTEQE

T2: TX1BP3, O14907
T2 sequence (O14907 10-122, limits assumed, looked up): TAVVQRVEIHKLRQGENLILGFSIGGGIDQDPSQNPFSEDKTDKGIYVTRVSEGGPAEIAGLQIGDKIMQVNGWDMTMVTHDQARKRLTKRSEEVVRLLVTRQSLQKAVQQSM

T3: PCLO, Q9Y6V0
T3 sequence (Q9Y6V0 4491-4600, limits assumed, looked up): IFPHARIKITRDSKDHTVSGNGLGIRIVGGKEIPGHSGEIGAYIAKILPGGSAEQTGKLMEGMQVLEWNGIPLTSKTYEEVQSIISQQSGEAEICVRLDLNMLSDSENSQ

T4: DLG3_1, Q92796
T4 sequence (Q92796 125-227, limits assumed, looked up): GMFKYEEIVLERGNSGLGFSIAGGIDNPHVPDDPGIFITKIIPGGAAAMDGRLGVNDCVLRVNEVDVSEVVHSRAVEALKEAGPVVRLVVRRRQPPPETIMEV

T5: LIN7C, Q9NUP9
T5 sequence (Q9NUP9 88-185, limits assumed, looked up): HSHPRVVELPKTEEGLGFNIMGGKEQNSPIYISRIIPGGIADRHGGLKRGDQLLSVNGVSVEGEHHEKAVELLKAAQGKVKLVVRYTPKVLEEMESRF

T6: ARHGEF11, O15085
T6 sequence (O15085 42-136, limits assumed, looked up): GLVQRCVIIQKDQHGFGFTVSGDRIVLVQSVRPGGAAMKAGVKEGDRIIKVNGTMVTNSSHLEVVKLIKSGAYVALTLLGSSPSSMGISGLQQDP

T7: APBA1_2, Q02410
T7 sequence (Q02410 742-832, limits assumed, looked up): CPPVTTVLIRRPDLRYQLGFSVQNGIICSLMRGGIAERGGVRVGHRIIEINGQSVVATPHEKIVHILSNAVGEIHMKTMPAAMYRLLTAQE

T8: LIN7A, O14910
T8 sequence (O14910 103-200, limits assumed, looked up): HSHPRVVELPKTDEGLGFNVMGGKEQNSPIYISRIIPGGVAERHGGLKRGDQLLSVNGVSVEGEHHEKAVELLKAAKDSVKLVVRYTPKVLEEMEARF

T9: SNTG2, Q9NY99
T9 sequence (Q9NY99 68-166, limits assumed, looked up): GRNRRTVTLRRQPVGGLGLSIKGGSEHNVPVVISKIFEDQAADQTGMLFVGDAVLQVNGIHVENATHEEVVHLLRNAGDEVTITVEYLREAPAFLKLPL

T10: APBA2_1, Q99767
T10 sequence (Q99767 563-664, limits assumed, looked up): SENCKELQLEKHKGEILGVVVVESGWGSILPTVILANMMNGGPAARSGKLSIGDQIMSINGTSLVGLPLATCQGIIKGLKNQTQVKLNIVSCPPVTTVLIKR

T11: PARD3B_1, Q8TEW8
T11 sequence (Q8TEW8 196-299, limits assumed, looked up): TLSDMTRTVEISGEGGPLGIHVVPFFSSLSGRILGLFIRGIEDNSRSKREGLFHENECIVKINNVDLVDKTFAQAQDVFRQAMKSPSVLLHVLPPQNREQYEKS


Experiments:
Assay in all cases: holdup assay
Set-up in all cases: key: below the threshold = too weak to quantify, mostly under pKd 3.1 to 4
Settings in all cases: plain residues with an end cap or a label only (N-terminal biotin on a linker: ado-ado)
Inadl_10, Q8NI35 = target: Inadl_10, Q8NI35
RAPGEF6, Q8TEU7 = target: T1, RAPGEF6, Q8TEU7
TX1BP3, O14907 = target: T2, TX1BP3, O14907
LNX1_1, Q8TBB1 = target: LNX1_1, Q8TBB1
GRASP, Q7Z6J2 = target: GRASP, Q7Z6J2
PCLO, Q9Y6V0 = target: T3, PCLO, Q9Y6V0
Inadl_9, Q8NI35 = target: Inadl_9, Q8NI35
AHNAK1, Q09666 = target: AHNAK1, Q09666
DLG3_1, Q92796 = target: T4, DLG3_1, Q92796
GRIP2_7, Q9C0E4 = target: GRIP2_7, Q9C0E4
LIN7C, Q9NUP9 = target: T5, LIN7C, Q9NUP9
DLG5_1, Q8TDM6 = target: DLG5_1, Q8TDM6
MAGI3_2, Q5TCQ9 = target: MAGI3_2, Q5TCQ9
FRMPD2_3, Q68DX3 = target: FRMPD2_3, Q68DX3
ARHGEF11, O15085 = target: T6, ARHGEF11, O15085
APBA1_2, Q02410 = target: T7, APBA1_2, Q02410
LIN7A, O14910 = target: T8, LIN7A, O14910
SNTG2, Q9NY99 = target: T9, SNTG2, Q9NY99
DLG1_2, Q12959 = target: DLG1_2, Q12959
HTRA2, O43464 = target: HTRA2, O43464
DLG2_3, Q15700 = target: DLG2_3, Q15700
MAGI2_6, Q86UL8 = target: MAGI2_6, Q86UL8
FRMPD3, Q5JV73 = target: FRMPD3, Q5JV73
APBA2_1, Q99767 = target: T10, APBA2_1, Q99767
LIMK2, P53671 = target: LIMK2, P53671
PARD3B_1, Q8TEW8 = target: T11, PARD3B_1, Q8TEW8
LNX1_2, Q8TBB1 = target: LNX1_2, Q8TBB1
Sequence of LNX1_2, Q8TBB1 (Q8TBB1 371-470): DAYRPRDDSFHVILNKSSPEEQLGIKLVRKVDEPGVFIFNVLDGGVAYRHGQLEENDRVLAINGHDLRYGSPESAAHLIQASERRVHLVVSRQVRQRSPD

Sequence of DLG5_1, Q8TDM6 (Q8TDM6 617-713): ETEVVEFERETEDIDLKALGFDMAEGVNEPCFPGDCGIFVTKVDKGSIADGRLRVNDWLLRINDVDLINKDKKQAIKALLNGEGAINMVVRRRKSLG
Sequence of GRIP2_7, Q9C0E4 (Q9C0E4 934-1023): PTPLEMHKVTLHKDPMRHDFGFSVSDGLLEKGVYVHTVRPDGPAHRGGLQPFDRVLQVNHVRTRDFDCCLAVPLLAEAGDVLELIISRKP
Sequence of MAGI2_6, Q86UL8 (Q86UL8 1141-1229): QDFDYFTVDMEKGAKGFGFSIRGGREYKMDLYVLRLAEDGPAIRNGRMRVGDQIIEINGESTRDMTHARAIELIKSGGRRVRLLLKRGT
Sequence of GRASP, Q7Z6J2 (Q7Z6J2 96-193): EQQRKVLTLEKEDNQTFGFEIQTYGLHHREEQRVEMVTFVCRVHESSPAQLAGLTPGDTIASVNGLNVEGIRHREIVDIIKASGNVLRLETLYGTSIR
Sequence of Inadl_10, Q8NI35 (Q8NI35 1673-1763): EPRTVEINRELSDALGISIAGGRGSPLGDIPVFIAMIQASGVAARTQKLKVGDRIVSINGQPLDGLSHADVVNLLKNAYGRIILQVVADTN
Sequence of AHNAK1, Q09666 (Q09666 4-100): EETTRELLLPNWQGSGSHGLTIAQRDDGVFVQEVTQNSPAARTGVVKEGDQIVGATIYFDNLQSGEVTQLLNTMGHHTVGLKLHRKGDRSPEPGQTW
Sequence of LNX1_1, Q8TBB1 (Q8TBB1 261-371): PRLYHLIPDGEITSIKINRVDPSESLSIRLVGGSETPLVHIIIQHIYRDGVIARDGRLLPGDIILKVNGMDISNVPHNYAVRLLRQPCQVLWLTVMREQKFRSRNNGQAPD
Sequence of DLG1_2, Q12959 (Q12959 314-412): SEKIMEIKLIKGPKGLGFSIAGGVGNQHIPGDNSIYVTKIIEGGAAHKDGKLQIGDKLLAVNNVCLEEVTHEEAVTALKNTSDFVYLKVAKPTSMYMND
Sequence of FRMPD3, Q5JV73 (Q5JV73 12-100): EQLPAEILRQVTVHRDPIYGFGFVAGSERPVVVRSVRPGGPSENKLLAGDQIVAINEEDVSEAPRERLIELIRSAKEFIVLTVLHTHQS
Sequence of HTRA2, O43464 (O43464 355-458): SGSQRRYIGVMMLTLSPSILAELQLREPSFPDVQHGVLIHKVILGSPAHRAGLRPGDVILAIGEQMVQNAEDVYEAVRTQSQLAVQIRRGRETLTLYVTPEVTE
Sequence of MAGI3_2, Q5TCQ9 (Q5TCQ9 398-503): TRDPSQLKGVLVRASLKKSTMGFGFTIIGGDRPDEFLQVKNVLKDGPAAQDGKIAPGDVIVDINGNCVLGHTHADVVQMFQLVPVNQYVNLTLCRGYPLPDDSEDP
Sequence of FRMPD2_3, Q68DX3 (Q68DX3 1073-1166): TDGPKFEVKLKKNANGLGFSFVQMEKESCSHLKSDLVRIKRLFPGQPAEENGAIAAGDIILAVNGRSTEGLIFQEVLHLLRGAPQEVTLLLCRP
Sequence of Inadl_9, Q8NI35 (Q8NI35 1530-1615): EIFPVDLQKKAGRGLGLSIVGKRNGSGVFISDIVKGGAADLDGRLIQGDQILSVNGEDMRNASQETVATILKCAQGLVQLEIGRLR
Sequence of LIMK2, P53671 (P53671 143-248): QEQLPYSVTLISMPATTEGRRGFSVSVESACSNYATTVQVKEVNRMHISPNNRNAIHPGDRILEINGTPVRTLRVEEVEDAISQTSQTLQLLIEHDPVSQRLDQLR

Row | Binder | pKd (Inadl_10, Q8NI35) | pKd (RAPGEF6, Q8TEU7) | pKd (TX1BP3, O14907) | pKd (LNX1_1, Q8TBB1) | pKd (GRASP, Q7Z6J2) | pKd (PCLO, Q9Y6V0) | pKd (Inadl_9, Q8NI35) | pKd (AHNAK1, Q09666) | pKd (DLG3_1, Q92796) | pKd (GRIP2_7, Q9C0E4) | pKd (LIN7C, Q9NUP9) | pKd (DLG5_1, Q8TDM6) | pKd (MAGI3_2, Q5TCQ9) | pKd (FRMPD2_3, Q68DX3) | pKd (ARHGEF11, O15085) | pKd (APBA1_2, Q02410) | pKd (LIN7A, O14910) | pKd (SNTG2, Q9NY99) | pKd (DLG1_2, Q12959) | pKd (HTRA2, O43464) | other results
1 | LRSPRTPSEV [OR10G3, Q8NGC4] | below the threshold | below the threshold | 3.51 | below the threshold | below the threshold | below the threshold | 4.01 | below the threshold | below the threshold | below the threshold | 3.88 | below the threshold | 4.4 | below the threshold | below the threshold | 4.1 | below the threshold | below the threshold | 4.1 | below the threshold | pKd (DLG2_3, Q15700): below the threshold; pKd (MAGI2_6, Q86UL8): below the threshold; pKd (FRMPD3, Q5JV73): below the threshold; pKd (APBA2_1, Q99767): below the threshold; pKd (LIMK2, P53671): below the threshold; pKd (PARD3B_1, Q8TEW8): below the threshold; pKd (LNX1_2, Q8TBB1): below the threshold
2 | RRRESYSTTV [EVI5, O60447] | 3.8 | below the threshold | 4.09 | 4.47 | 4.55 | below the threshold | 3.88 | below the threshold | 5.06 | below the threshold | 4.31 | below the threshold | 5.18 | below the threshold | 4.68 | 3.74 | below the threshold | 4.13 | 5.57 | below the threshold | pKd (DLG2_3, Q15700): 4.52; pKd (MAGI2_6, Q86UL8): 3.77; pKd (FRMPD3, Q5JV73): below the threshold; pKd (APBA2_1, Q99767): below the threshold; pKd (LIMK2, P53671): below the threshold; pKd (PARD3B_1, Q8TEW8): below the threshold; pKd (LNX1_2, Q8TBB1): 3.99

Source: PMC9482650, “Quantitative fragmentomics allow affinity mapping of interactomes” (Nature Communications, 2022)
